Reference: the Immune Epitope Database (IEDB)

What was measured:
HLA-A*31:01 = test: IEDB peptide-MHC binding, purified MHC/direct/fluorescence; filed as Kd, often an IC50 or EC50 that approximates it; ≥ and ≤ were set here for values at or beyond the usual limits of such assays
HLA-A*11:01 = test: as above
HLA-B*40:01 = test: as above
HLA-A*01:01 [1] = test: as above
HLA-B*27:05 = test: as above
HLA-B*58:01 = test: as above
HLA-A*69:01 [2] = test: as above
HLA-A*02:01 [3] = test: as above
HLA-B*57:01 = test: as above; settings: source organism: Mycobacterium tuberculosis
HLA-B*46:01 = test: as above; settings: source organism: Mycobacterium tuberculosis
HLA-B*07:02 = test: as above
HLA-B*48:01 = test: as above; settings: source organism: Mycobacterium tuberculosis
HLA-A*26:01 [4] = test: IEDB peptide-MHC binding, purified MHC/competitive/fluorescence; filed as Kd, often an IC50 or EC50 that approximates it; ≥ and ≤ were set here for values at or beyond the usual limits of such assays; settings: source organism: Mycobacterium tuberculosis variant bovis BCG str. Pasteur 1173P2
HLA-A*26:03 = test: as above; settings: source organism: Mycobacterium tuberculosis variant bovis BCG str. Pasteur 1173P2
HLA-B*15:01 [5] = test: as above; settings: source organism: Mycobacterium tuberculosis variant bovis BCG str. Pasteur 1173P2
HLA-B*18:01 = test: as above; settings: source organism: Mycobacterium tuberculosis variant bovis BCG str. Pasteur 1173P2
HLA-B*35:01 [6] = test: as above; settings: source organism: Mycobacterium tuberculosis variant bovis BCG str. Pasteur 1173P2
HLA-B*15:17 = test: as above; settings: source organism: Mycobacterium tuberculosis variant bovis BCG str. Pasteur 1173P2
HLA-A*68:02 = test: as above; settings: source organism: Mycobacterium tuberculosis variant bovis BCG str. Pasteur 1173P2
HLA-A*02:06 = test: as above
HLA-A*01:01 [7] = test: as above; settings: source organism: Mycobacterium tuberculosis variant bovis BCG str. Pasteur 1173P2
HLA-A*26:02 [8] = test: as above; settings: source organism: Mycobacterium tuberculosis variant bovis BCG str. Pasteur 1173P2
HLA-A*69:01 [9] = test: as above
HLA-B*14:02 = test: IEDB peptide-MHC binding, purified MHC/direct/fluorescence; filed as Kd, often an IC50 or EC50 that approximates it; ≥ and ≤ were set here for values at or beyond the usual limits of such assays; settings: source organism: Homo sapiens
HLA-C*08:02 = test: as above
HLA-C*06:02 = test: as above; settings: source organism: Entamoeba histolytica HM-1:IMSS
HLA-C*05:01 = test: as above
HLA-C*07:02 = test: as above; settings: source organism: Entamoeba histolytica HM-1:IMSS
HLA-A*02:01 [10] = test: IEDB peptide-MHC binding, cellular MHC/competitive/fluorescence; ≥ and ≤ were set here for values at or beyond the usual limits of such assays
HLA-A*26:02 [11] = test: IEDB peptide-MHC binding, purified MHC/direct/fluorescence; filed as Kd, often an IC50 or EC50 that approximates it; ≥ and ≤ were set here for values at or beyond the usual limits of such assays; settings: source organism: West Nile virus strain PTRoxo
HLA-A*32:07 = test: IEDB peptide-MHC binding, purified MHC/competitive/fluorescence; filed as Kd, often an IC50 or EC50 that approximates it; ≥ and ≤ were set here for values at or beyond the usual limits of such assays; settings: source organism: West Nile virus
HLA-B*15:42 = test: as above; settings: source organism: West Nile virus
HLA-A*32:15 = test: as above; settings: source organism: West Nile virus
HLA-B*83:01 = test: as above; settings: source organism: West Nile virus
HLA-B*45:06 = test: as above; settings: source organism: West Nile virus
HLA-B*08:01 = test: IEDB peptide-MHC binding, purified MHC/direct/fluorescence; filed as Kd, often an IC50 or EC50 that approximates it; ≥ and ≤ were set here for values at or beyond the usual limits of such assays; settings: source organism: Burkholderia mallei
HLA-A*24:03 = test: as above; settings: source organism: Burkholderia mallei
HLA-A*26:01 [12] = test: as above; settings: source organism: Burkholderia mallei
HLA-B*15:01 [13] = test: as above; settings: source organism: Burkholderia mallei
HLA-B*35:01 [14] = test: as above; settings: source organism: Burkholderia mallei
HLA-A*03:01 = test: as above; settings: source organism: Burkholderia mallei
HLA-A*02:03 = test: IEDB peptide-MHC binding, purified MHC/competitive/fluorescence; filed as Kd, often an IC50 or EC50 that approximates it; ≥ and ≤ were set here for values at or beyond the usual limits of such assays; settings: source organism: human gammaherpesvirus 4
HLA-A*02:11 = test: as above; settings: source organism: human gammaherpesvirus 4
HLA-A*02:19 = test: as above; settings: source organism: human gammaherpesvirus 4
HLA-A*02:01 [15] = test: as above; settings: source organism: human gammaherpesvirus 4
HLA-A*02:16 = test: as above; settings: source organism: human gammaherpesvirus 4
HLA-A*02:12 = test: as above; settings: source organism: human gammaherpesvirus 4
[16] = source organism: Mycobacterium tuberculosis
[17] = source organism: Mycobacterium tuberculosis variant bovis BCG str. Pasteur 1173P2
[18] = source organism: Entamoeba histolytica HM-1:IMSS
[19] = source organism: Burkholderia mallei
[20] = source organism: Burkholderia pseudomallei 91
[21] = source organism: human gammaherpesvirus 4

AVFLSYIGY
Kd (HLA-A*31:01; [16]): ≥ 20000 nM | Kd (HLA-A*11:01; [16]): 1560 nM | Kd (HLA-B*40:01; [16]): ≥ 20000 nM | Kd (HLA-A*01:01 [1]; [16]): ≥ 20000 nM | Kd (HLA-B*27:05; [16]): ≥ 20000 nM | Kd (HLA-B*58:01; [16]): 17000 nM | Kd (HLA-A*69:01 [2]; [16]): ≥ 20000 nM | Kd (HLA-A*02:01 [3]; [16]): ≥ 20000 nM | Kd (HLA-B*57:01): ≥ 20000 nM | Kd (HLA-B*46:01): ≥ 20000 nM | Kd (HLA-B*07:02; [16]): ≥ 20000 nM | Kd (HLA-B*48:01): ≥ 20000 nM | Kd (HLA-A*26:01 [4]): ≥ 20000 nM | Kd (HLA-A*26:03): ≥ 20000 nM | Kd (HLA-B*15:01 [5]): 1840 nM | Kd (HLA-B*18:01): ≥ 20000 nM | Kd (HLA-B*35:01 [6]): 3950 nM | Kd (HLA-B*15:17): 314 nM | Kd (HLA-A*68:02): 3040 nM

ATADLELAY
Kd (HLA-A*31:01; [16]): ≥ 20000 nM | Kd (HLA-A*11:01; [16]): 10.5 nM | Kd (HLA-B*40:01; [16]): ≥ 20000 nM | Kd (HLA-B*27:05; [16]): ≥ 20000 nM | Kd (HLA-B*58:01; [16]): 9.8 nM | Kd (HLA-A*02:01 [3]; [16]): 818 nM | Kd (HLA-B*07:02; [16]): ≥ 20000 nM | Kd (HLA-B*48:01): ≥ 20000 nM | Kd (HLA-A*02:06; [17]): 2500 nM | Kd (HLA-A*01:01 [7]): 22.7 nM | Kd (HLA-A*26:02 [8]): 130 nM | Kd (HLA-A*26:01 [4]): 428 nM | Kd (HLA-A*26:03): ≥ 20000 nM | Kd (HLA-A*69:01 [9]; [17]): ≥ 20000 nM | Kd (HLA-B*15:17): 11.1 nM | Kd (HLA-A*68:02): ≥ 20000 nM

LQVAHEEI
Kd (HLA-B*14:02): 528 nM

FAMRLLQAV
Kd (HLA-C*08:02; [18]): 17 nM | Kd (HLA-C*06:02): 844 nM | Kd (HLA-C*05:01; [18]): 3170 nM | Kd (HLA-C*07:02): 2890 nM

KMDASLGNLFA
IC50 (HLA-A*02:01 [10]; source organism: Homo sapiens): 1110 nM

ETTNWLWAF
Kd (HLA-A*26:02 [11]): ≤ 1 nM | Kd (HLA-A*32:07): 26.3 nM | Kd (HLA-B*15:42): ≥ 5000 nM | Kd (HLA-A*32:15): 25.1 nM | Kd (HLA-B*83:01): ≥ 5000 nM | Kd (HLA-B*45:06): ≥ 5000 nM

ISDSAQNMM
Kd (HLA-B*08:01): ≥ 20000 nM | Kd (HLA-A*31:01; [19]): ≥ 20000 nM | Kd (HLA-A*11:01; [19]): ≥ 20000 nM | Kd (HLA-A*24:03): ≥ 20000 nM | Kd (HLA-B*40:01; [19]): ≥ 20000 nM | Kd (HLA-A*01:01 [1]; [19]): 1040 nM | Kd (HLA-B*27:05; [19]): ≥ 20000 nM | Kd (HLA-B*58:01; [19]): 152 nM | Kd (HLA-A*26:01 [12]): ≥ 20000 nM | Kd (HLA-B*15:01 [13]): ≥ 20000 nM | Kd (HLA-C*08:02; [20]): ≤ 1 nM | Kd (HLA-B*35:01 [14]): 40.2 nM | Kd (HLA-A*69:01 [2]; [19]): ≥ 20000 nM | Kd (HLA-A*03:01): ≥ 20000 nM | Kd (HLA-A*02:01 [3]; [19]): ≥ 20000 nM | Kd (HLA-B*07:02; [19]): ≥ 20000 nM | Kd (HLA-C*05:01; [20]): 3 nM

VSPLHRVL
Kd (HLA-B*14:02): 89.6 nM

NQIIHRDL
Kd (HLA-B*14:02): 130 nM

LLLDVPTAAV
IC50 (HLA-A*02:01 [10]; source organism: Homo sapiens): 530 nM

CLGGLLTMV
Kd (HLA-A*02:03): 0.67 nM | Kd (HLA-A*02:06; [21]): ≤ 0.1 nM | Kd (HLA-A*02:11): ≤ 0.1 nM | Kd (HLA-A*02:19): 7.5 nM | Kd (HLA-A*69:01 [9]; [21]): 3170 nM | Kd (HLA-A*02:01 [15]): 23 nM | Kd (HLA-A*02:16): ≤ 0.1 nM | Kd (HLA-A*02:12): ≤ 1 nM | IC50 (HLA-A*02:01 [10]; [21]): 2500 nM
